Earlier results as cited in PMC3310390.
Where two headings read alike, the source gives them in different places.

Experiments:
[1] = biological target: Sir3 (Saccharomyces cerevisiae) (UniProt P06701)
[2] = biological target: Sir3 (Saccharomyces cerevisiae) (UniProt P06701); remark: listed apart in the source
[3] = biological target: Sir3 (Saccharomyces cerevisiae) (UniProt P06701); remark: listed apart in the source

Sir2 (from UniProt P06700)
Kd [1]: 60 nM

Sir2/Sir4 complex (from UniProt P06700)
Kd [2]: 0.03 nM

Sir3 (from UniProt P06701)
Kd [3]: 2 nM
